# Several values for one entry are separate records, joined by “and”; a condition that tells them apart may be missing. Identical values can stand only once.
# Tests used:
# [1] = target: Heme A synthase from Aquifex aeolicus (Aquifex aeolicus strain VF5) (UniProt O66543); assay: cross-linking; 0.5/3.5 mM BS3 or 0.5 mM DSS, room temperature, 30 min, quenched with 50 mM Tris-HCl pH 7.5, then 90°C for 10 min and SDS-PAGE
# [2] = target: Heme A synthase from Aquifex aeolicus (Aquifex aeolicus strain VF5) (UniProt O66543); assay: native MS; LILBID-MS, AaHAS 2 mg/ml, in the presence of 150 mM NaCl, harsh laser mode, negative-ion mode
# [3] = target: Heme A synthase from Aquifex aeolicus (Aquifex aeolicus strain VF5) (UniProt O66543); assay: native gel or EMSA; BN-PAGE, Novex 4 to 16% bis-Tris gel, purified AaHAS in DM; band at about 200 kDa, conversion factor 1.8 gives 110 kDa
# [4] = target: Heme A synthase from Aquifex aeolicus (Aquifex aeolicus strain VF5) (UniProt O66543); assay: cryo-EM structure; single-particle cryo-EM of purified AaHAS (2.5 mg/ml) in DM; map at 4.2 Å with C3 symmetry, 4.6 Å without applied symmetry
# [5] = target: Heme A synthase from Aquifex aeolicus (Aquifex aeolicus strain VF5) (UniProt O66543); assay: native MS; LILBID-MS, additionally desalted AaHAS (without NaCl; 20 mM Tris-HCl pH 7.4, 0.15% DM), harsh laser mode, negative-ion mode
# [6] = target: Heme A synthase from Aquifex aeolicus (Aquifex aeolicus strain VF5) (UniProt O66543); assay: SEC-MALS; 150 μl AaHAS at ~2 mg/ml, Superdex 200 10/300 GL, 20 mM Tris-HCl pH 7.4, 150 mM NaCl, 0.15% DM, 4°C
# [7] = target: Heme A synthase from Aquifex aeolicus (Aquifex aeolicus strain VF5) (UniProt O66543); assay: SDS-PAGE + MALDI-TOF MS; purified AaHAS on 4 to 12% bis-Tris NuPAGE; incubated with 10 mM DTT at room temperature or 70°C for 10 min; masses of the two bands by MALDI-TOF MS (data not shown)
substance,measurement,setting,value
Heme A synthase from Aquifex aeolicus (from UniProt O66543 2-296) (enzyme),stoichiometry N,[1],2 and 3
same,stoichiometry N,[2],3
same,stoichiometry N,[3],3
same,stoichiometry N,[4],3
same,stoichiometry N,[5],2 and 3
same,stoichiometry N,[6],3
same,stoichiometry N,[7],3
